Laboratory results taken from publication PMC3079584.

Columns and labels:
[1] = molecular target: Full-length His-She3p (Saccharomyces cerevisiae) (UniProt P38272); test: SPR; Biacore 3000, CM-5 chip, She3p amine-coupled, She2p flowed over, HNMD-buffer; steady state, Langmuir isotherm; duplicates
[2] = molecular target: She2p;She3p (Saccharomyces cerevisiae;Saccharomyces cerevisiae) (UniProt P36068+P38272); test: EMSA; conditions: EMSA: 20 mM HEPES pH 7.8, 200 mM NaCl, 2 mM MgCl2, 2 mM DTT, 4% glycerol, 30 or 100 ug/ml yeast tRNA, 5 nM RNA, 20 C; filter binding: 20 mM HEPES pH 7.4-7.5 (7.)
Chain of She2p;She3p (Saccharomyces cerevisiae;Saccharomyces cerevisiae) (P36068 whole entry, chain 1 of 2): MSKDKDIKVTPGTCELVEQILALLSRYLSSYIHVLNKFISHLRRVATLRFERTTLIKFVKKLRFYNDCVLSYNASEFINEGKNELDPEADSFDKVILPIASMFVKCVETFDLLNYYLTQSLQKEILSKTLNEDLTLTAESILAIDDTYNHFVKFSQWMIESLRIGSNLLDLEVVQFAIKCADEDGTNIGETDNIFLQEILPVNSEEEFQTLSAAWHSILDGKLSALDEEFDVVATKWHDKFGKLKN
Chain of She2p;She3p (Saccharomyces cerevisiae;Saccharomyces cerevisiae) (P38272 whole entry, chain 2 of 2): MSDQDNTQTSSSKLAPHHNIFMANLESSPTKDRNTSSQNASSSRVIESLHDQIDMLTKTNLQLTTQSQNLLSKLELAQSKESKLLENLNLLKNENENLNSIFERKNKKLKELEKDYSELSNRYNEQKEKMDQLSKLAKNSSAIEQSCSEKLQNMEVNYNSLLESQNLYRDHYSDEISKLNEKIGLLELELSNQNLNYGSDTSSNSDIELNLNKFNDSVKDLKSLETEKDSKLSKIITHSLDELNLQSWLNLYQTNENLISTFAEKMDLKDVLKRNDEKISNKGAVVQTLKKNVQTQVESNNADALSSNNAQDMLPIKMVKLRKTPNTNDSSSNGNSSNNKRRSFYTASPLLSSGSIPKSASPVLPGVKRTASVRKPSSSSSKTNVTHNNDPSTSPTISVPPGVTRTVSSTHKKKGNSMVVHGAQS

Chain of Full-length His-She3p (Saccharomyces cerevisiae) (P38272 whole entry): as the sequence (P38272 whole entry, chain 2 of 2) above

She2p (ΔC) (from UniProt P36068 1-240) (domain or fragment)
Kd [1]: 2000 nM

HIV-1 TAR (length not stated)
Kd [2]: > 1500 nM
